Measured values reported in patent US11401512.

Legend:
Assay in all cases: cell_activity
[1] = tested on: 47898-FLAG ZFN (right, albumin) (synthetic)
[2] = tested on: 71557 ZFN (left, albumin) F1 m5Q, F3 m5Q; FokI N542D (synthetic)
[3] = tested on: 71728 ZFN (right, albumin) F3 m5Q; FokI P478S (synthetic)
[4] = tested on: SBS47171-FLAG ZFN (left, albumin) (synthetic)
[5] = off-target, pair 47171/47898, AAV 600K MOI
[6] = off-target, pair 71557/71728, AAV 600K MOI

With SMCHD1 off-target site the activity [1, 5] was 0.36 % indels, the activity [2, 6] was 0.34 % indels and the activity [3, 6] was 0.34 % indels. For the same substance, the activity [4, 5] was 0.36 % indels.

For “CCTATCCATTGCACTATGCTTTATTTAA (double strand) [albumin right ZFN half-site]”, the activity ([1]; with 47171, primary human hepatocytes, AAV 600K MOI, day 10) was 25.4 % indels and the activity ([3]; with 71557, primary human hepatocytes, AAV 600K MOI, day 10) was 44.2 % indels.

With “TTTGGGATAGTTATGAATTCAATCTTCA (double strand) [albumin left ZFN half-site (A/T allele)]” the activity ([2]; with 71728, primary human hepatocytes, AAV 600K MOI, day 10) was 44.2 % indels and the activity ([4]; with 47898, primary human hepatocytes, AAV 600K MOI, day 10) was 25.4 % indels.
